B1: Mothers against decapentaplegic homolog 4 (Homo sapiens), Q13485 (parent)
chain: MDNMSITNTPTSNDACLSIVHSLMCHRQGGESETFAKRAIESLVKKLKEKKDELDSLITAITTNGAHPSKCVTIQRTLDGRLQVAGRKGFPHVIYARLWRWPDLHKNELKHVKYCQYAFDLKCDSVCVNPYHYERVVSPGIDLSGLTLQSNAPSSMMVKDEYVHDFEGQPSLSTEGHSIQTIQHPPSNRASTETYSTPALLAPSESNATSTANFPNIPVASTSQPASILGGSHSEGLLQIASGPQPGQQQNGFTGQPATYHHNSTTTWTGSRTAPYTPNLPHHQNGHLQHHPPMPPHPGHYWPVHNELAFQPPISNHPAPEYWCSIAYFEMDVQVGETFKVPSSCPIVTVDGYVDPSGGDRFCLGQLSNVHRTEAIERARLHIGKGVQLECKGEGDVWVRCLSDHAVFVQSYYLDREAGRAPGDAVHKIYPSAYIKVFDLRQCHRQMQQQAATAQAAAAAQAAAVAGNIPGPGSVGGIAPAISLSAAAGIGVDDLRRLCILRMSFVKGWGPDYPRQSIKETPCWIEIHLHRALQLLDEVLHTMPIADPQPLD
partner: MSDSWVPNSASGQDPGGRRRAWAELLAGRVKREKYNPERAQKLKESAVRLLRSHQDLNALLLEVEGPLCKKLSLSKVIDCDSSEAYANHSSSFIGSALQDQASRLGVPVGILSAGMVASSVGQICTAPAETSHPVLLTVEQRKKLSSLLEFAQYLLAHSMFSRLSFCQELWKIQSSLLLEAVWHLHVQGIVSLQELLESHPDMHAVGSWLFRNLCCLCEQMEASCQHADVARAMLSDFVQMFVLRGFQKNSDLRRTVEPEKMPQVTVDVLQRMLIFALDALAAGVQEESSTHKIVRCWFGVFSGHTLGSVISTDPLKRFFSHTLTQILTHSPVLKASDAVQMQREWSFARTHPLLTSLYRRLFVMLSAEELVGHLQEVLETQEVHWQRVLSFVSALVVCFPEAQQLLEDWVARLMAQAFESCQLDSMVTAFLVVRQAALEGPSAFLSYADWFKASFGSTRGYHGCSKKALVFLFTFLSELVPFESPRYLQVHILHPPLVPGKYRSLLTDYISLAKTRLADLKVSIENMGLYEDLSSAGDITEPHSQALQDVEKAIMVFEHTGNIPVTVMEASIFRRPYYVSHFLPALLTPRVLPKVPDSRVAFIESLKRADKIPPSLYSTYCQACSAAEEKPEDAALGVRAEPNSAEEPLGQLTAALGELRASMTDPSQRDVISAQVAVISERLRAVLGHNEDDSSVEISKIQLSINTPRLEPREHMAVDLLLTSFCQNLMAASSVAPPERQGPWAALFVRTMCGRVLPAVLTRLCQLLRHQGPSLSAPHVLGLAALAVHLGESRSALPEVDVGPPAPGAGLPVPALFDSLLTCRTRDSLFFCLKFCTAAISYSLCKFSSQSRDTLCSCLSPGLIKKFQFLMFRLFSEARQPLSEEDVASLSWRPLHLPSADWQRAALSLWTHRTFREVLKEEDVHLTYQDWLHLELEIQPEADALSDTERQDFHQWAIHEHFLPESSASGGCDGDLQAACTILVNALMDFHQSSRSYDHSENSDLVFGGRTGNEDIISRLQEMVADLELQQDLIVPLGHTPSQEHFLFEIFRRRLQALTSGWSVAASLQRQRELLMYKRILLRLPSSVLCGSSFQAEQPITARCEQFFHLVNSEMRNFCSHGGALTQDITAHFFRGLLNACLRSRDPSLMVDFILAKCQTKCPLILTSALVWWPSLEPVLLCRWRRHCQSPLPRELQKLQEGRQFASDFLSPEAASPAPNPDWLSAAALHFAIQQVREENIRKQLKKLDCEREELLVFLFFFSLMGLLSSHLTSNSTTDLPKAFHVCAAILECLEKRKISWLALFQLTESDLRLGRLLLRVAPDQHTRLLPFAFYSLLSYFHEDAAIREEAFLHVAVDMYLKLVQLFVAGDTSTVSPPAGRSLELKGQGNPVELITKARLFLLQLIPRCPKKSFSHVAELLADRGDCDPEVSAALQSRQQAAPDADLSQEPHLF
B2: Mothers against decapentaplegic homolog 4 (Homo sapiens), Q13485 (parent)
chain: B1 chain
partner: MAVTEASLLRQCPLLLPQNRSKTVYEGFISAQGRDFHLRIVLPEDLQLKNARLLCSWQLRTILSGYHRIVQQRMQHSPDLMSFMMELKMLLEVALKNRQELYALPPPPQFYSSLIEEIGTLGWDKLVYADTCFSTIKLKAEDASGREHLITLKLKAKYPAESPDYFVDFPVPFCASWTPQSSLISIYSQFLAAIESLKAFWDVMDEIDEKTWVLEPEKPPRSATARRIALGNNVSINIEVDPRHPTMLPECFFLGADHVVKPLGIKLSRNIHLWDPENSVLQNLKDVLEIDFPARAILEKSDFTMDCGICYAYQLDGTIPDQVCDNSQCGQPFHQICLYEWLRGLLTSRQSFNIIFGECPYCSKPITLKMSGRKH
B3: Mothers against decapentaplegic homolog 4 (Homo sapiens), Q13485 (parent)
chain: B1 chain
partner: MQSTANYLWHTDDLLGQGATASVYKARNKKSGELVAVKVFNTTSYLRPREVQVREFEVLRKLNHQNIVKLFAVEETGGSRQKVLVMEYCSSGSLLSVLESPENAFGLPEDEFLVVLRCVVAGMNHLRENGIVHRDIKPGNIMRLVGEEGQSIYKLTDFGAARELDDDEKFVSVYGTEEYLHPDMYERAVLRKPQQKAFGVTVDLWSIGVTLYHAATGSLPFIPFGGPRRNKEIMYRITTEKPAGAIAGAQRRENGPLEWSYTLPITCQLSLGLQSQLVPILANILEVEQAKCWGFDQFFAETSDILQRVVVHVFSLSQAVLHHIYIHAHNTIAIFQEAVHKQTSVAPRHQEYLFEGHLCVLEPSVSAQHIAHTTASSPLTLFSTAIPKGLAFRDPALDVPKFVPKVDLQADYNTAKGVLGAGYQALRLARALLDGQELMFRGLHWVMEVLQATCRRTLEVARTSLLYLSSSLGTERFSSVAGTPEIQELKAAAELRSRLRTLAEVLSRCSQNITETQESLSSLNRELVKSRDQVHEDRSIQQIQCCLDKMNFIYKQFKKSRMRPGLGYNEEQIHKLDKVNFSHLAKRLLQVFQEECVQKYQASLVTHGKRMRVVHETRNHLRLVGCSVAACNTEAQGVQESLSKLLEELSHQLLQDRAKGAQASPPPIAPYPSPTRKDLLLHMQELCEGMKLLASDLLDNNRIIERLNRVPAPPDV
B4: Mothers against decapentaplegic homolog 4 (Homo sapiens), Q13485 (parent)
chain: B1 chain
partner: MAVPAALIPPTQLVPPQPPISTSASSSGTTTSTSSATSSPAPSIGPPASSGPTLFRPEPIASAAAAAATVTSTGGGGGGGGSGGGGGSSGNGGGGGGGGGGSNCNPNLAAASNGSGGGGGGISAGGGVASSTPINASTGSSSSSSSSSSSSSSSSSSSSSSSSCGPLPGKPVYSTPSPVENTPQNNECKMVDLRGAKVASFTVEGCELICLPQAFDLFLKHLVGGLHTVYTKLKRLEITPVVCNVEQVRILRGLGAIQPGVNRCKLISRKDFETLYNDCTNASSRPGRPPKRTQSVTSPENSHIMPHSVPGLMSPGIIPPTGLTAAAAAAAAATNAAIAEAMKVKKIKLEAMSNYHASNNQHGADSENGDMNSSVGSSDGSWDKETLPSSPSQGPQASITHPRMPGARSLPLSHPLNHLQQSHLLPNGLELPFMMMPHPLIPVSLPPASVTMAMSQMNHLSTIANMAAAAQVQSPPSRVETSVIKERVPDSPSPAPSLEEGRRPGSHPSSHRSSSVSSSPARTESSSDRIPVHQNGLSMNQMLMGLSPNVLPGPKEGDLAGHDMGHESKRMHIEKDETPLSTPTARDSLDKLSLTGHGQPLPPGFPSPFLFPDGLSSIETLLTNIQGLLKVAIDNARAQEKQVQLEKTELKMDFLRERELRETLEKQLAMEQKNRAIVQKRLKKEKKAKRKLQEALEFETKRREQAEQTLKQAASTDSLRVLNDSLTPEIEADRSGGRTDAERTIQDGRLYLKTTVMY
B5: Mothers against decapentaplegic homolog 4 (Homo sapiens), Q13485 (parent)
chain: B1 chain
partner: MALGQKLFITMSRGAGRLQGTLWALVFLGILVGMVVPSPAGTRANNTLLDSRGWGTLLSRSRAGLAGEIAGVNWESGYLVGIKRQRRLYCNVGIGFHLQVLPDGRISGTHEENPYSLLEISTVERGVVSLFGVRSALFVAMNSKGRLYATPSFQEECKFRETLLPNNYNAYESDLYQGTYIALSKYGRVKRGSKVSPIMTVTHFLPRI
B6: Mothers against decapentaplegic homolog 4 (Homo sapiens), Q13485 (parent)
chain: B1 chain
partner: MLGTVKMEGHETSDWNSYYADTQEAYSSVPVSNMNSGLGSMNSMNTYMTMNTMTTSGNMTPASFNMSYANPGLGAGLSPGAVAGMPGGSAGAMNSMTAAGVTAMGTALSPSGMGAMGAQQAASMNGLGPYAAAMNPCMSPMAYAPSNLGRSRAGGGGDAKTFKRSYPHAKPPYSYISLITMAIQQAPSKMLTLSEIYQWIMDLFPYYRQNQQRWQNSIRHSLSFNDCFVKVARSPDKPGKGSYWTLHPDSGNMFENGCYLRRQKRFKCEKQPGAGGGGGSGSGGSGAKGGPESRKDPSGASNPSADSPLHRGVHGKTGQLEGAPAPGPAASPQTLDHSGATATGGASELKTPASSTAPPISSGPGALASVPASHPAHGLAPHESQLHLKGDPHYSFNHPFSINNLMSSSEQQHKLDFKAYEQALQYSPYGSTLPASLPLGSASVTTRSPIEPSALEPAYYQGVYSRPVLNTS
B7: Mothers against decapentaplegic homolog 4 (Homo sapiens), Q13485 (parent)
chain: B1 chain
partner: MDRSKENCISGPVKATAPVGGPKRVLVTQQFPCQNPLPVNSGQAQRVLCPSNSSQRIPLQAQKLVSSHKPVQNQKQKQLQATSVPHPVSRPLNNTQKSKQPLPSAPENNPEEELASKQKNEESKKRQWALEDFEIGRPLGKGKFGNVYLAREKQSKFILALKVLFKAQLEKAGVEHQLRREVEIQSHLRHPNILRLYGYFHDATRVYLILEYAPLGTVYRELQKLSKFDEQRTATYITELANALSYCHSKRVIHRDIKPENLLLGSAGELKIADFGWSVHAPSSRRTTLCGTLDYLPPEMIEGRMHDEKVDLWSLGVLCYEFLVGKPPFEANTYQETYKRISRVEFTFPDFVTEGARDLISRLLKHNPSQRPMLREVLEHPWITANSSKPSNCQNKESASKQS

Variants of: B1
Conditions: with fanca_human FANCA

Row | Variant | effect of a mutation on the interaction
1 | R361H | with no effect

Variants of: B1
Conditions: with fanca_human FANCA
Remark: another data set of the same source

Row | Variant | effect of a mutation on the interaction
2 | D351H | with no effect

Variants of: B2
Conditions: with fancl_human FANCL

Row | Variant | effect of a mutation on the interaction
3 | D351H | with no effect

Variants of: B2
Conditions: with fancl_human FANCL
Remark: another data set of the same source

Row | Variant | effect of a mutation on the interaction
4 | G386D | with no effect

Variants of: B2
Conditions: with fancl_human FANCL
Remark: another data set of the same source

Row | Variant | effect of a mutation on the interaction
5 | G386D | increasing interaction strength

Variants of: B2
Conditions: with fancl_human FANCL
Remark: another data set of the same source

Row | Variant | effect of a mutation on the interaction
6 | R361H | with no effect

Variants of: B2
Conditions: with fancl_human FANCL
Remark: another data set of the same source

Row | Variant | effect of a mutation on the interaction
7 | R361C | with no effect

Variants of: B3
Conditions: with ikke_human IKBKE

Row | Variant | effect of a mutation on the interaction
8 | D351H | with no effect

Variants of: B3
Conditions: with ikke_human IKBKE
Remark: another data set of the same source

Row | Variant | effect of a mutation on the interaction
9 | G386D | with no effect

Variants of: B4
Conditions: with dach1_human DACH1, Q9UI36

Row | Variant | effect of a mutation on the interaction
10 | R361C | with no effect

Variants of: B4
Conditions: with dach1_human DACH1, Q9UI36
Remark: another data set of the same source

Row | Variant | effect of a mutation on the interaction
11 | R361H | with no effect

Variants of: B4
Conditions: with dach1_human DACH1, Q9UI36
Remark: another data set of the same source

Row | Variant | effect of a mutation on the interaction
12 | G386D | with no effect

Variants of: B4
Conditions: with dach1_human DACH1, Q9UI36
Remark: another data set of the same source

Row | Variant | effect of a mutation on the interaction
13 | D351H | with no effect

Variants of: B5
Conditions: with fgf6_human FGF6, P10767

Row | Variant | effect of a mutation on the interaction
14 | G386D | with no effect

Variants of: B5
Conditions: with fgf6_human FGF6, P10767
Remark: another data set of the same source

Row | Variant | effect of a mutation on the interaction
15 | R361C | with no effect

Variants of: B5
Conditions: with fgf6_human FGF6, P10767
Remark: another data set of the same source

Row | Variant | effect of a mutation on the interaction
16 | R361H | with no effect

Variants of: B5
Conditions: with fgf6_human FGF6, P10767
Remark: another data set of the same source

Row | Variant | effect of a mutation on the interaction
17 | D351H | with no effect

Variants of: B6
Conditions: with foxa1_human FOXA1, P55317

Row | Variant | effect of a mutation on the interaction
18 | G386D | with no effect

Variants of: B6
Conditions: with foxa1_human FOXA1, P55317
Remark: another data set of the same source

Row | Variant | effect of a mutation on the interaction
19 | D351H | with no effect

Variants of: B6
Conditions: with foxa1_human FOXA1, P55317
Remark: another data set of the same source

Row | Variant | effect of a mutation on the interaction
20 | R361H | with no effect

Variants of: B6
Conditions: with foxa1_human FOXA1, P55317
Remark: another data set of the same source

Row | Variant | effect of a mutation on the interaction
21 | R361C | with no effect

Variants of: B7
Conditions: with aurka_human AURKA

Row | Variant | effect of a mutation on the interaction
22 | G386D | with no effect

Variants of: B7
Conditions: with aurka_human AURKA
Remark: another data set of the same source

Row | Variant | effect of a mutation on the interaction
23 | R361H | with no effect

Variants of: B7
Conditions: with aurka_human AURKA
Remark: another data set of the same source

Row | Variant | effect of a mutation on the interaction
24 | R361C | with no effect

Variants of: B7
Conditions: with aurka_human AURKA
Remark: another data set of the same source

Row | Variant | effect of a mutation on the interaction
25 | D351H | with no effect

From IntAct's records for PubMed 35512704
